In US20250019439A1 (Adimab, published 2025):

Columns and labels:
[1] = biological target: T1, ADI-67445; experiment: SPR Carterra avidity, yeast anti-ID
T1 construct: anti-CD3 antibody made in CHO cells, captured by anti-human Fc
Method: (§1) Kinetic analysis was conducted at 25° C. in an HBSTE running buffer system (Carterra Cat #3630) using a Carterra LSA (Carterra USA, Salt Lake City, UT). The sample compartment was maintained at 20° C. for the duration of each experiment.
(§2) For antibody capture experiments, a goat anti-human Fc antibody (Jackson ImmunoResearch) was covalently coupled to an HC30M sensor chip surface via standard amine coupling (1:1 EDC:NHS) and then blocked with ethanolamine (1.0 M, pH 8.5). Covalent coupling steps were performed in 25 mM MES buffer (Carterra, Cat #3625) plus 0.05% Tween20. The anti-CD3 antibodies (100 nM in running buffer) were flowed over discrete regions of interest on the chip surface for 5 minutes. […] Dissociation of the anti-idiotype antibodies was monitored for 300s. Several blank buffer samples were injected over the entire chip surface at the start of each non-regenerative kinetic cycle. The preceding blank buffer injection was used for blank surface subtraction. At the end of each non-regenerative kinetic cycle, all surfaces were regenerated via two 30s injections of 10 mM glycine, pH 1.7.
(§3) For data processing and fitting, sensorgrams were double reference subtracted with a baseline drift correction of 4 RU. Sensorgrams were y-aligned and baseline corrected, filtered and cropped to include only the association and dissociation steps. Data was fitted to a 1:1 binding model using Carterra Kinetics Data Analysis software version 1.7.1.3055.

[2] = biological target: T2, ADI-70330; experiment: SPR Carterra avidity, yeast anti-ID
T2 construct: anti-CD3 antibody made in CHO cells, captured by anti-human Fc
T2 sequence (VH, as listed by the source limits assumed, chain 1 of 2): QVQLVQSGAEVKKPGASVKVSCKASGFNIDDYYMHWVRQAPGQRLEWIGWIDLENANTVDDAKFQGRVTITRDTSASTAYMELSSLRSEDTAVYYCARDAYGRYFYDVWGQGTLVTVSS
T2 sequence (VL, as listed by the source limits assumed, chain 2 of 2): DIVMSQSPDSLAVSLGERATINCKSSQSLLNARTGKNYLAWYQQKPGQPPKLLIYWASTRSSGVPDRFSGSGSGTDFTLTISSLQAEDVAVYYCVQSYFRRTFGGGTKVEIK
Method: as §1, §2, §3

[3] = biological target: T3, ADI-74967; experiment: SPR Carterra avidity, yeast anti-ID
T3 construct: pH-dependent anti-CD3 antibody made in CHO cells
T3 sequence (VH, as listed by the source, chain 1 of 2): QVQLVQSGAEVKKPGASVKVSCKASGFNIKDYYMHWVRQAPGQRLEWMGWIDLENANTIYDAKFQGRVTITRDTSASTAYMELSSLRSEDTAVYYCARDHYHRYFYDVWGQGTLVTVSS
T3 sequence (VL, as listed by the source, chain 2 of 2): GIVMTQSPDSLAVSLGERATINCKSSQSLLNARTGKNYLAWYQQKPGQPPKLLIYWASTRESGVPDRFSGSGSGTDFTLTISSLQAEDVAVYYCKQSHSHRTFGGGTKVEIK
Method: as §1, §2, §3

[4] = biological target: T4, ADI-70326; experiment: SPR Carterra avidity, yeast anti-ID
T4 construct: anti-CD3 antibody made in CHO cells, captured by anti-human Fc
T4 sequence (VH, as listed by the source limits assumed, chain 1 of 2): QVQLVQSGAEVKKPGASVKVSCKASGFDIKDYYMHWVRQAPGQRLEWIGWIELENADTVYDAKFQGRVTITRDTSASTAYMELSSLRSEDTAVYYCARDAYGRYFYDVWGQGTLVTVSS
Method: as §1, §2, §3

[5] = biological target: T5, ADI-26916 IgG; experiment: SPR Carterra avidity, yeast anti-ID
T5 construct: anti-CD3 IgG
Method: as §1, §2, §3

[6] = biological target: T6, CTL-62223; experiment: SPR Carterra avidity, yeast anti-ID
T6 construct: also called mosunetuzumab
Method: as §1, §2, §3

[7] = biological target: T7, ADI-67450; experiment: SPR Carterra avidity, yeast anti-ID
T7 construct: anti-CD3 antibody made in CHO cells, captured by anti-human Fc
T7 sequence (VH, as listed by the source limits assumed, chain 1 of 2): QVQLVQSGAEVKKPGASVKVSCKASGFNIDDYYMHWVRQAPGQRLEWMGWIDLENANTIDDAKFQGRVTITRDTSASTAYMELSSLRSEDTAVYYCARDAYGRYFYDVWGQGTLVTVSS
T7 sequence (VL, as listed by the source limits assumed, chain 2 of 2): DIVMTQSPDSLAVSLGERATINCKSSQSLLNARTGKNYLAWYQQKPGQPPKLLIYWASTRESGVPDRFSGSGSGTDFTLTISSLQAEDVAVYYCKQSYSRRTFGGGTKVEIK
Method: as §1, §2, §3

[8] = biological target: T8, ADI-74965; experiment: SPR Carterra avidity, yeast anti-ID
T8 construct: pH-dependent anti-CD3 antibody made in CHO cells
T8 sequence (VH, as listed by the source, chain 1 of 2): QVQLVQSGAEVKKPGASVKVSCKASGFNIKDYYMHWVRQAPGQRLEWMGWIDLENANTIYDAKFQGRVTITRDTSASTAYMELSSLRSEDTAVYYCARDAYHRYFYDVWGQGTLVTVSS
T8 sequence (VL, as listed by the source, chain 2 of 2): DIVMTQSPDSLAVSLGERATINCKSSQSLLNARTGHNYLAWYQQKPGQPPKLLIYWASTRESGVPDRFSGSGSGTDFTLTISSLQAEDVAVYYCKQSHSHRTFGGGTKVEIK
Method: as §1, §2, §3

[9] = biological target: T9, ADI-48650; experiment: SPR Carterra avidity, yeast anti-ID
T9 construct: pH-dependent anti-CD3 antibody made in CHO cells
T9 sequence (VH, as listed by the source, chain 1 of 2): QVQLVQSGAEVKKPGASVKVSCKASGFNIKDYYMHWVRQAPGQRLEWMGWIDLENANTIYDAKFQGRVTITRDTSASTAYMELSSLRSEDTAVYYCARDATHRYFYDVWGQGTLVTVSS
T9 sequence (VL, as listed by the source, chain 2 of 2): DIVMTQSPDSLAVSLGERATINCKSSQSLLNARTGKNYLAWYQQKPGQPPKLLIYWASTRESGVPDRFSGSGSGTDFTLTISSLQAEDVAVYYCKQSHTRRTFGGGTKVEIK
Method: as §1, §2, §3

[10] = biological target: T10, ADI-76357; experiment: SPR Carterra avidity, yeast anti-ID
T10 construct: anti-CD3 antibody made in CHO cells, captured by anti-human Fc
Method: as §1, §2, §3

[11] = biological target: T11, ADI-74968; experiment: SPR Carterra avidity, yeast anti-ID
T11 construct: pH-dependent anti-CD3 antibody made in CHO cells
T11 sequence (VL, as listed by the source, chain 2 of 2): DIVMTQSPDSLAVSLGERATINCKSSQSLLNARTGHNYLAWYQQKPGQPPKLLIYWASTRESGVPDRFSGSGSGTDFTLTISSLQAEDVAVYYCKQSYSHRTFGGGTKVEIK
Method: as §1, §2, §3

[12] = biological target: T12, ADI-70327; experiment: SPR Carterra avidity, yeast anti-ID
T12 construct: anti-CD3 antibody made in CHO cells, captured by anti-human Fc
Method: as §1, §2, §3

[13] = biological target: T13, ADI-26915; experiment: SPR Carterra avidity, yeast anti-ID
T13 construct: anti-CD3 antibody made in CHO cells, captured by anti-human Fc
T13 sequence (VH, as listed by the source, chain 1 of 2): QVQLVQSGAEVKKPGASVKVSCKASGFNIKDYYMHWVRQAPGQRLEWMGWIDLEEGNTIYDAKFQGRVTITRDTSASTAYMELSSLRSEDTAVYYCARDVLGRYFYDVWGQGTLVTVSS
Method: as §1, §2, §3

[14] = biological target: T14, ADI-76360; experiment: SPR Carterra avidity, yeast anti-ID
T14 construct: anti-CD3 antibody made in CHO cells, captured by anti-human Fc
Method: as §1, §2, §3

[15] = biological target: T15, ADI-48592; experiment: SPR Carterra avidity, yeast anti-ID
T15 construct: pH-dependent anti-CD3 antibody made in CHO cells
Method: as §1, §2, §3

[16] = biological target: T16, ADI-76358; experiment: SPR Carterra avidity, yeast anti-ID
T16 construct: anti-CD3 antibody made in CHO cells, captured by anti-human Fc
Method: as §1, §2, §3

[17] = biological target: T17, ADI-26912; experiment: SPR Carterra avidity, yeast anti-ID
T17 construct: anti-CD3 antibody made in CHO cells, captured by anti-human Fc
Method: as §1, §2, §3

[18] = biological target: T18, ADI-74966; experiment: SPR Carterra avidity, yeast anti-ID
T18 construct: pH-dependent anti-CD3 antibody made in CHO cells
Method: as §1, §2, §3

[19] = biological target: T19, ADI-26913 IgG; experiment: SPR Carterra avidity, yeast anti-ID
T19 construct: anti-CD3 IgG
Method: as §1, §2, §3

[20] = biological target: T20, ADI-48576; experiment: SPR Carterra avidity, yeast anti-ID
T20 construct: pH-dependent anti-CD3 antibody made in CHO cells
Method: as §1, §2, §3

[21] = biological target: T21, ADI-67447; experiment: SPR Carterra avidity, yeast anti-ID
T21 construct: anti-CD3 antibody made in CHO cells, captured by anti-human Fc
T21 sequence (VH, as listed by the source limits assumed, chain 1 of 2): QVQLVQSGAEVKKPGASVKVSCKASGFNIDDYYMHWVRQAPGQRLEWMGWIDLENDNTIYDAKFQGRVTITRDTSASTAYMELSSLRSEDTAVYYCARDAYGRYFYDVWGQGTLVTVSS
Method: as §1, §2, §3

[22] = biological target: T22, ADI-48587; experiment: SPR Carterra avidity, yeast anti-ID
T22 construct: pH-dependent anti-CD3 antibody made in CHO cells
Method: as §1, §2, §3

[23] = biological target: T23, ADI-26909; experiment: SPR Carterra avidity, yeast anti-ID
T23 construct: anti-CD3 antibody made in CHO cells, captured by anti-human Fc
Method: as §1, §2, §3

[24] = biological target: T24, ADI-26924; experiment: SPR Carterra avidity, yeast anti-ID
T24 construct: anti-CD3 antibody made in CHO cells, captured by anti-human Fc
T24 sequence (VH, as listed by the source, chain 1 of 2): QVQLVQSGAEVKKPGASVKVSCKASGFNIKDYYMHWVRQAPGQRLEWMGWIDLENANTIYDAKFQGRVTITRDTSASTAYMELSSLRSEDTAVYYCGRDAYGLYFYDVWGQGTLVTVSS
T24 sequence (VL, as listed by the source, chain 2 of 2): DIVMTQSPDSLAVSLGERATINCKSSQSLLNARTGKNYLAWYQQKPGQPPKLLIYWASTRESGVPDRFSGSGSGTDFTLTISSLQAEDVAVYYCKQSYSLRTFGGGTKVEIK
Method: as §1, §2, §3

[25] = biological target: T25, ADI-76362; experiment: SPR Carterra avidity, yeast anti-ID
T25 construct: anti-CD3 antibody made in CHO cells, captured by anti-human Fc
T25 sequence (VH, as listed by the source, chain 1 of 2): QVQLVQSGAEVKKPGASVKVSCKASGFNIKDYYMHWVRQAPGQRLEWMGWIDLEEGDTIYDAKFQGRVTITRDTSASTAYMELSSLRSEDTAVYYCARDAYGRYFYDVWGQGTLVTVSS
Method: as §1, §2, §3

[26] = biological target: T26, ADI-22523 Fab; experiment: BLI; tip anti-ID IgG, solution ADI-22523 Fab
T26 construct: anti-CD3 Fab by papain digestion of the IgG
T26 sequence (VH, as listed by the source limits assumed, chain 1 of 2): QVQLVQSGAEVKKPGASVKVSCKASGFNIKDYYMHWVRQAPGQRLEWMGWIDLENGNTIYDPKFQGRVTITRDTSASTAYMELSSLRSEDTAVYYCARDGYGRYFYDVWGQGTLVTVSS
T26 sequence (VL, as listed by the source limits assumed, chain 2 of 2): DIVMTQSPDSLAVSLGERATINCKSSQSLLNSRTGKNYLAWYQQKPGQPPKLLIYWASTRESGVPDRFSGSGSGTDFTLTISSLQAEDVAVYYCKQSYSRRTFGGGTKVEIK
Method: (§4) ForteBio affinity measurements were performed generally as previously described (Estep et al., MAbs. 2013 5(2):270-8). Briefly, ForteBio affinity measurements were performed by loading antibody IgG or Fabs on-line onto AHC sensors. Sensors were equilibrated off-line in assay buffer for 30 minutes and then monitored on-line for 60 seconds for baseline establishment. For avid binding measurement, sensors with loaded antibodies were exposed to IgG or Fab solutions for 3 minutes, afterwards they were transferred to assay buffer for 3 minutes for off-rate measurement. Kinetics data were fit using a 1:1 binding model in the data analysis software provided by ForteBio to obtain equilibrium dissociation constant (KD=koff/kₒₙ) values. In each column, tip-immobilized antibodies are listed first and solution antibodies second.

[27] = biological target: T27, ADI-26920 IgG; experiment: SPR Carterra avidity, yeast anti-ID, *koff limit
T27 construct: anti-CD3 IgG
T27 sequence (VH, as listed by the source limits assumed, chain 1 of 2): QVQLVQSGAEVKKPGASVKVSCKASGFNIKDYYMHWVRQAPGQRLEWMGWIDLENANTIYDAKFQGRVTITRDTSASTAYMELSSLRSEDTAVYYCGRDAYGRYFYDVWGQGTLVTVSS
Method: as §1, §2, §3

[28] = biological target: T28, ADI-76359; experiment: SPR Carterra avidity, yeast anti-ID, *koff limit
T28 construct: anti-CD3 antibody made in CHO cells, captured by anti-human Fc
Method: as §1, §2, §3

[29] = biological target: T29, ADI-50024; experiment: SPR Carterra avidity, yeast anti-ID, *koff limit
T29 construct: anti-CD3 antibody made in CHO cells, captured by anti-human Fc
Method: as §1, §2, §3

[30] = biological target: T30, ADI-26919; experiment: SPR Carterra avidity, yeast anti-ID, *koff limit
T30 construct: anti-CD3 antibody made in CHO cells, captured by anti-human Fc
Method: as §1, §2, §3

[31] = biological target: T31, ADI-76361; experiment: SPR Carterra avidity, yeast anti-ID, *koff limit
T31 construct: anti-CD3 antibody made in CHO cells, captured by anti-human Fc
T31 sequence (VH, as listed by the source, chain 1 of 2): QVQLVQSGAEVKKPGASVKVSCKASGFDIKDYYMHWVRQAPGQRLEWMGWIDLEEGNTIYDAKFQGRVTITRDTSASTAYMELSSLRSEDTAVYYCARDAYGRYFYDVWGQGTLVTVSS
Method: as §1, §2, §3

[32] = biological target: T32, ADI-26921 IgG; experiment: SPR Carterra avidity, yeast anti-ID, *koff limit
T32 construct: anti-CD3 IgG
Method: as §1, §2, §3

[33] = biological target: T33, ADI-26906 IgG; experiment: SPR Carterra avidity, yeast anti-ID, *koff limit
T33 construct: anti-CD3 IgG
Method: as §1, §2, §3

[34] = biological target: T34, ADI-26943; experiment: SPR Carterra avidity, yeast anti-ID, *koff limit
T34 construct: anti-CD3 antibody made in CHO cells, captured by anti-human Fc
Method: as §1, §2, §3

[35] = biological target: T35, ADI-22523 IgG; experiment: BLI; tip anti-ID IgG, solution ADI-22523 IgG
T35 construct: anti-CD3 IgG
Method: as §4

T1 sequence (VH, as listed by the source limits assumed, chain 1 of 2): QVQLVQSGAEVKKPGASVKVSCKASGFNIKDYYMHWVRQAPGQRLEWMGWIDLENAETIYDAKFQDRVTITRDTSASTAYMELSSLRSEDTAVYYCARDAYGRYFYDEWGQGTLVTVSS

Kd [1]: 340 pM
Kd [2]: 470 pM
Kd [3]: 210 pM
Kd [4]: 4100 pM
Kd [5]: 140 pM
Kd [6]: 1200 pM
Kd [7]: 630 pM
binding result [8]: binds
binding result [9]: binds
Kd [10]: 97 pM
Kd [11]: 830 pM
binding result [12]: binds
Kd [13]: 15000 pM
Kd [14]: 150 pM
Kd [15]: 19000 pM
Kd [16]: 1100 pM
binding result [17]: binds
Kd [18]: 350 pM
Kd [19]: 100 pM
Kd [20]: 31000 pM
Kd [21]: 260 pM
Kd [22]: 1800 pM
Kd [23]: 100 pM
Kd [24]: 140 pM
Kd [25]: 410 pM
Kd [26]: 7810 pM
Kd [27]: 110 pM
Kd [28]: 53 pM
Kd [29]: 170 pM
Kd [30]: 82 pM
Kd [31]: 44 pM
Kd [32]: 73 pM
Kd [33]: 130 pM
Kd [34]: 99 pM
Kd [35]: 540 pM
B1: ADI-34135 (antibody, V domains shown)
VH: QVQLVQSGAEVKKPGSSVKVSCKASGGTFSSYAISWVRQAPGQGLEWMGGIIPIFGTANYAQKFQGRVTITADESTSTAYMELSSLRSEDTAVYYCARGAPNYYGSGGYDDGWFDPWGQGTLVTVSS
VL: EIVMTQSPGTLSLSPGERATLSCRASQSVSSSYLAWYQQKPGQAPRLLIYGASSRATGIPDRFSGSGSGTDFTLTISRLEPEDFAVYYCQQFGRYPTFGGGTKVEIK
notes: anti-ID IgG
